Experimental findings from publication PMC5177890, “Controlled Orientation of Active Sites in a Nanostructured Multienzyme Complex” (Scientific Reports, 2016) are described below.

For orientation: stoichiometry N means the number of molecules, sites or subunits per partner or assembly.

The data set concerns the molecule itself. The experiment in a line: SEC; size exclusion chromatography of the enzyme in solution (Supplementary Fig. 1); conditions not told in the main text. Background: In gel filtration, larger molecules generally elute earlier.

B1: Formate dehydrogenase from Thiobacillus sp. KNK65MA, wild type (enzyme)
chain: MAKILCVLYDDPVDGYPKTYARDDLPKIDHYPGGQTLPTPKAIDFTPGQLLGSVSGELGLRKYLEANGHTFVVTSDKDGPDSVFEKELVDADVVISQPFWPAYLTPERIAKAKNLKLALTAGIGSDHVDLQSAIDRGITVAEVTYCNSISVAEHVVMMILGLVRNYIPSHDWARKGGWNIADCVEHSYDLEGMTVGSVAAGRIGLAVLRRLAPFDVKLHYTDRHRLPEAVEKELGLVWHDTREDMYPHCDVVTLNVPLHPETEHMINDETLKLFKRGAYIVNTARGKLADRDAIVRAIESGQLAGYAGDVWFPQPAPKDHPWRTMKWEGMTPHISGTSLSAQARYAAGTREILECFFEGRPIRDEYLIVQGGALAGTGAHSYSKGNATGGSEEAAKFKKAG
notes: NAD-dependent formate dehydrogenase of Thiobacillus sp; KNK65MA; fdh gene PCR amplified from pET-23b(+)-TsFDH and subcloned into pQE80; 45 kDa for a single subunit; also called FDH; FDH-WT; source: E. coli TOP10, purified (Ni-NTA agarose)
Regarding B1, the “stoichiometry N” value came out at 2.
